Consider two substances from US10808017B2, “Ubiquitin variants and uses therof as 53BP1 inhibitors” (The Governing Council of the University of Toronto, priority 2016, dated 2020).

For one experiment, the target named is T1, MYCBP (Homo sapiens, UniProt Q99417).
T1 construct: endogenous in cells; host or cells: HEK293 Flp-In/T-REx
T1 sequence (Q99417 1-103): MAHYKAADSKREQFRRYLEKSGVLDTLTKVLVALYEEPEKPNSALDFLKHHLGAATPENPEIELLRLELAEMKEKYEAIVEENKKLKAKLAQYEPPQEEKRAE
The experiment in a line: Flag IP-MS of i53/i53-DM baits: prey MYCBP. In kind it is binding. The note with it: 293T Flp-In/T-Rex extracts, LC-MS/MS, one column per replicate IP, listed as Flag-i53-DM. As for the experimental part:
(§1) Following immunoprecipitation of Flag-tagged i53 and i-53-DM from HEK293 Flp-In/T-REx cells, peptides were identified using LC-MS/MS. Proteins were digested in solution with trypsin (Sigma, T7575-1KT) and dried to completeness. For LC-MS/MS analysis, peptides were reconstituted in 5% formic acid and loaded onto a 12-15 cm fused silica column with pulled tip packed in-house with 3.5 μm Zorbax C18 (Agilent Technologies, Calif., USA).
(§2) i53 and i53-DM precipitates were analyzed using an LTQ (Thermo Scientific) coupled to an Agilent 1100 Series HPLC (Agilent Technologies). Peptides were eluted from the column using a 90 min period cycle with a linear gradient from 0% to 40% ACN in 0.1% formic acid. Tandem MS spectra were acquired in a data-dependent mode for the top 5 (LTQ) most abundant ions using collision-induced dissociation. Acquired spectra were searched against the human Refseq_V53 database using Mascot (Matrix Science).
(§3) 293T Flp-In/T-Rex cell lines were generated that expressed Flag-tagged i53 or i53-DM under the control of a tetracycline-inducible promoter as previously described. Nine IP-MS experiments were analyzed (3 biological replicate IPs each for control i53- and i53-DM expressing cell lines). The interacting proteins were identified by MASCOT to identify high-confidence interactors for i53. […]

The target in the next experiment is T2, TTC12 (Homo sapiens, UniProt Q9H892).
T2 construct: endogenous in cells; host or cells: HEK293 Flp-In/T-REx cells
T2 sequence (Q9H892 1-705): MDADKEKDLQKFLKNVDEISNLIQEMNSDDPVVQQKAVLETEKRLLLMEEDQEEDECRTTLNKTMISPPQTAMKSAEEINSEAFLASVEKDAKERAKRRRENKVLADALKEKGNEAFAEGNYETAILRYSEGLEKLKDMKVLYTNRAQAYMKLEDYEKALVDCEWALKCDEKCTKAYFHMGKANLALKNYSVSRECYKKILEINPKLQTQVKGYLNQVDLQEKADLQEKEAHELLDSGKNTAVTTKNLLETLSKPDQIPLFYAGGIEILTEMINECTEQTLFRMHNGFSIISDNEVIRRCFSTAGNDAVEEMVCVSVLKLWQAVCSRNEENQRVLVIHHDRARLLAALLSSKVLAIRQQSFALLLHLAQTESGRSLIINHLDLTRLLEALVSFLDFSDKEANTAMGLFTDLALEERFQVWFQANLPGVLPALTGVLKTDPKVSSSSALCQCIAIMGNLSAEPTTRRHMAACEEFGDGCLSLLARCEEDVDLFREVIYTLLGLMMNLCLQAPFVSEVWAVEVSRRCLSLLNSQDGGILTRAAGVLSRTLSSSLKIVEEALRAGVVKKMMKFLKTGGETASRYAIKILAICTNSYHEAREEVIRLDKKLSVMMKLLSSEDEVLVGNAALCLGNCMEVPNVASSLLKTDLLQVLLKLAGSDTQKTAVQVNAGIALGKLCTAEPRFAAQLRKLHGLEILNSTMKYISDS
Briefly: Flag IP-MS of i53/i53-DM baits: prey TTC12. In kind it is binding. The note with it: 293T Flp-In/T-Rex extracts, LC-MS/MS, one column per replicate IP. As for the experimental part: as §1, §2, §3

In another experiment the test system is RAB34. Briefly: Flag IP-MS of i53/i53-DM baits: prey RAB34. The note with it: 293T Flp-In/T-Rex extracts, LC-MS/MS, one column per replicate IP. In kind it is binding, human. As for the experimental part:
as §1, §2, §3

Another experiment addresses T3, DLEC1 (Homo sapiens, UniProt Q9Y238).
T3 construct: endogenous in cells; host or cells: HEK293 Flp-In/T-REx cells
Briefly: Flag IP-MS of i53/i53-DM baits: prey DLEC1. The note with it: 293T Flp-In/T-Rex extracts, LC-MS/MS, one column per replicate IP. It counts as binding. As for the experimental part: as §1, §2, §3

For experiment [1], the system named is BRCA1 focus formation in U2OS cells. Briefly: Ionizing radiation focus formation, BRCA1 (immunofluorescence). It counts as cell-based. The note with it: 10 Gy. On the procedure: FIG. 3. The i53 protein inhibits 53BP1. FIG. 3A-B, U2OS cells were transfected with vectors expressing i53, its 53BP1-binding deficient mutant (DM) or an empty vector (EV) control. Cells were then X-irradiated with a 10 Gy dose and processed for immunofluorescence with the indicated antibodies 1 h post-irradiation (IR). DAPI staining (not shown) was used to delineate the outline (dashed lines) of the cell nuclei. The region in the magnified inset is indicated with a square. Quantitation of the experiment is shown in panel (a) and data is indicated as the mean±s.e.m (N=3), whereas in (b) representative micrographs are shown. Arrowheads indicate Flag-positive cells. FIG. 3C, Parental or 53BP1ΔU2OS cells transfected with vectors expressing i53, the DM mutant or an empty vector (EV) control were irradiated (10 Gy) 1 h before being processed for immunofluorescence. Cell cycle stage was assessed by Cyclin A staining. The data is presented as the mean±s.e.m.; N=3. FIG. 3D, Immunoprecipitation (IP) of Flag-tagged proteins from extracts prepared from 293T cells transfected with vectors expressing Flag-i53 or the i53-DM mutant. Proteins were separated by SDS-PAGE and immunoblotted (IB) for Flag and 53BP1. […]

The next experiment addresses T4, PHB (Homo sapiens, UniProt P35232).
T4 construct: endogenous in cells; host or cells: HEK293 Flp-In/T-REx
T4 sequence (P35232 1-272): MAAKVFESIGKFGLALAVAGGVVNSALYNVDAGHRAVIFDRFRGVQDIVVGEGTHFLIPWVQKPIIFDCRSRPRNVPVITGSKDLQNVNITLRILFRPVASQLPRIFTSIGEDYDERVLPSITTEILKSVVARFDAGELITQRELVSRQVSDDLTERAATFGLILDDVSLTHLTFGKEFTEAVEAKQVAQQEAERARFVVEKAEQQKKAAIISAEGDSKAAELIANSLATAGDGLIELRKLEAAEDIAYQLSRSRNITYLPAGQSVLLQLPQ
The experiment in a line: Flag IP-MS of i53/i53-DM baits: prey PHB. It counts as binding. The note with it: 293T Flp-In/T-Rex extracts, LC-MS/MS, one column per replicate IP. On the procedure:
as §1, §2, §3

Where “and” joins values, the source holds several entries; their conditions need not be identical. Identical values can stand only once.

T3 sequence (Q9Y238 whole entry): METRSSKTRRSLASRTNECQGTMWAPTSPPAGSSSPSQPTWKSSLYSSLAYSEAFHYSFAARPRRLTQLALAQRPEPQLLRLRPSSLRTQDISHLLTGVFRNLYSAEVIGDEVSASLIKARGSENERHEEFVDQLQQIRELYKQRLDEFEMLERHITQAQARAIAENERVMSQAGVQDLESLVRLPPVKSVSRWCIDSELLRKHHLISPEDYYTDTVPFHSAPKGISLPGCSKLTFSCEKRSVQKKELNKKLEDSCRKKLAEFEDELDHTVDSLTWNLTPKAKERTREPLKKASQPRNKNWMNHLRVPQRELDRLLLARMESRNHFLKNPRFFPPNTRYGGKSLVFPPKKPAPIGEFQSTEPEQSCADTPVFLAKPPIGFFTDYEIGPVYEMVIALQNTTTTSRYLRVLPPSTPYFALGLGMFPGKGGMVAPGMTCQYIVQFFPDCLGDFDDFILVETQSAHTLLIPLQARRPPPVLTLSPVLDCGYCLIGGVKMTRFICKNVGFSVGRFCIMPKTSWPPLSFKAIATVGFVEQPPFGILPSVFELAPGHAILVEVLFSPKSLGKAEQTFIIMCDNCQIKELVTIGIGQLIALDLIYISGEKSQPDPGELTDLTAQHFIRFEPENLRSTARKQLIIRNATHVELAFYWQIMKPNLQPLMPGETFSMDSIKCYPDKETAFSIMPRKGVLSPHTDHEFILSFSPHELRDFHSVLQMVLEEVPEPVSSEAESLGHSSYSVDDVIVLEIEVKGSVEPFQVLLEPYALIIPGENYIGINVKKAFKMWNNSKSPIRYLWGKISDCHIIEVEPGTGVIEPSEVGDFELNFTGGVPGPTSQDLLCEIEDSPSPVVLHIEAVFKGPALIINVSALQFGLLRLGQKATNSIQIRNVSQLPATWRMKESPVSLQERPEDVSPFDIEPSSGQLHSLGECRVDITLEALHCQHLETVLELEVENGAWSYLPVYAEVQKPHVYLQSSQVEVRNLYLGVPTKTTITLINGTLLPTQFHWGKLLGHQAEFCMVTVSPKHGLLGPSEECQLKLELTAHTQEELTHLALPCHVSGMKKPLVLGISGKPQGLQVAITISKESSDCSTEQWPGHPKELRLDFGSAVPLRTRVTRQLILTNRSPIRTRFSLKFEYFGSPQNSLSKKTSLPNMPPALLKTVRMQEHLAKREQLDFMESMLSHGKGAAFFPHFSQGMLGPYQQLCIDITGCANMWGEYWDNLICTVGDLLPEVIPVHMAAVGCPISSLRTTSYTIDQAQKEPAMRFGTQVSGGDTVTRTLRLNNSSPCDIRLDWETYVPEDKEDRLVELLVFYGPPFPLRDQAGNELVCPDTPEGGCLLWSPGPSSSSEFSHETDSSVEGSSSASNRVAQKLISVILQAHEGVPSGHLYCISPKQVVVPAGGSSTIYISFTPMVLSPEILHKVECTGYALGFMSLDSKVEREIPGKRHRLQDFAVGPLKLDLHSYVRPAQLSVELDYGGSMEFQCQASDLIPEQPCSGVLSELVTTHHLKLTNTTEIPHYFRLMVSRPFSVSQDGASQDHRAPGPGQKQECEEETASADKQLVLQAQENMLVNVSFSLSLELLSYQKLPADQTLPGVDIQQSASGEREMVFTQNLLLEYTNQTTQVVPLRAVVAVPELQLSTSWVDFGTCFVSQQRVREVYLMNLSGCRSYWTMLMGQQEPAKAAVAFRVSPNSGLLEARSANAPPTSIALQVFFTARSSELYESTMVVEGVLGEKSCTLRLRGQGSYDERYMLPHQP

For “i53-DM: 53BP1-binding deficient mutant of i53 (P69L, L70V)”, in the experiment with MYCBP, the “Total peptides, MYCBP” value is 7 and 5. The “Total peptides, TTC12” value in the experiment with TTC12 was determined as 3. The “Total peptides, RAB34” value in the experiment with RAB34 came out at 2. For the same substance, the “Total peptides, DLEC1” value with DLEC1 was 2.
For “i53: UbvG08 with C-terminal di-glycine removed and I44A mutation; genetically encoded inhibitor of 53BP1”, the “BRCA1 accumulation at DSB sites in G1 cells” value in experiment [1] (U2OS cells, cell cycle stage by Cyclin A staining) is listed as “induced BRCA1 accumulation at DSB sites in G1 cells”. In experiment [1] (transfected U2OS cells, 1 h post-irradiation), the BRCA1 focus formation result is recorded as “did not impact”. Besides, the “Total peptides, PHB” value with PHB stood at 2.
